Laboratory results reported in patent US20260217835A1.

Target: IgG4 Fc fragment SEQ ID NO: 102, no modification (Homo sapiens (Human)) [IgG part: P01861]
Assay: SEC peak area ratio; coexpression of full-length heavy chain, light chain and Fc fragment

IgG4 Fc fragment SEQ ID NO: 102, no modification (Homo sapiens (Human)) [IgG part: P01861], sequence (P01861 other isoform, or with tags, fused parts or gaps limits assumed): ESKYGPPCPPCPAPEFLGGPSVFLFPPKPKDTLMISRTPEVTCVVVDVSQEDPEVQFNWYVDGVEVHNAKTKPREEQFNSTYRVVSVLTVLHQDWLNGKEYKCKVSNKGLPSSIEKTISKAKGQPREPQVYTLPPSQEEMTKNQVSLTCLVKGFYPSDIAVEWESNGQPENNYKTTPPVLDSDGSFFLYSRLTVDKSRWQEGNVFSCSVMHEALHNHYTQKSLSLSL

IgG4 full-length heavy chain SEQ ID NO: 110 with Q347E/S354Y/T366Y/Y407T, expressed with light chain SEQ ID NO: 61 (antibody)
Heteromultimer (%): 4.6%
